Laboratory results published in US20260144867A1 (TIGATX, published 2026).

Target: T1, EGFR expressed on A431, A1207 and D562 cell lines (human, UniProt P00533 25-1210)
T1 construct: whole, on cells; also called EGFR-expressing A431 cell line
Assay: competitive flow cytometry on A431 cells; blocked ligand: fluorescently labeled EGF (EGF-AL488)

B1: anti-EGFR IgA3.0min DP3 (antibody, V domains shown)
VH: QVQLVQSGAEVKKPGASVKVSCKASGYTFTSHWMHWVRQAPGQGLEWIGEFNPSNGRTNYNEKFKSKATMTVDTSTNTAYMELSSLRSEDTAVYYCASRDYDYDGRYFDYWGQGTLVTVSS
VL: DIQMTQSPSSLSASVGDRVTITCSASSSVTYMYWYQQKPGKAPKLLIYDTSNLASGVPSRFSGSGSGTDYTFTISSLQPEDIATYYCQQWSSHIFTFGQGTKVEIKR
notes: also called anti-EGFR IgA3.0min DS3
IC50 (read off the curve): ~3 µg/mL
